Results reported in article PMC5053164.

Assays:
[1] = aggregation after overnight glycosidase digestion; settings: glycan lost; control: untreated
[2] = yield of purified secreted protein, SDS-PAGE; settings: glycan lost; control: wild type
[3] = expression yield of multisite mutants; settings: glycan lost; control: wild type

B1: DORN1 extracellular domain (atDORN1-ECD; LecRK-I.9): PNGase F (protein)
parent chain: MARWLLQILIISSLHLSSVSSQQETSFVYESFLDRQNLYLDKSAIVLPSGLLQLTNASEHQMGHAFHKKPIEFSSSGPLSFSTHFVCALVPKPGFEGGHGIVFVLSPSMDFTHAESTRYLGIFNASTNGSSSYHVLAVELDTIWNPDFKDIDHNHVGIDVNSPISVAIASASYYSDMKGSNESINLLSGNPIQVWVDYEGTLLNVSVAPLEVQKPTRPLLSHPINLTELFPNRSSLFAGFSAATGTAISDQYILWWSFSIDRGSLQRLDISKLPEVPHPRAPHKKVSTLIILLPVCLAILVLAVLAGLYFRRRRKYSEVSETWEKEFDAHRFSYRSLFKATKGFSKDEFLGKGGFGEVYRGNLPQGREIAVKRVSHNGDEGVKQFVAEVVSMRCLKHRNLVPLFGYCRRKRELLLVSEYMPNGSLDEHLFDDQKPVLSWSQRLVVVKGIASALWYLHTGADQVVLHRDVKASNIMLDAEFHGRLGDFGMARFHEHGGNAATTAAVGTVGYMAPELITMGASTGTDVYAFGVFMLEVTCGRRPVEPQLQVEKRHMIKWVCECWKKDSLLDATDPRLGGKFVAEEVEMVMKLGLLCSNIVPESRPTMEQVVLYLNKNLPLPDFSPYTLGIGTFAPVLVDASSLVVSSASWSLSGPSMSSSSPNHSPYAWQSTDQPWGQTIDTKNSLHIVAEPEKPSPAVKMVTLPAEDPQSNHSSISSQRVQPVKREKRRLHQILVAFPWINKQYFKLGLPKHIVHVSLFFFLQLARL
stability_or_folding [1]: decreases

B2: DORN1 extracellular domain (atDORN1-ECD; LecRK-I.9): N204D (protein)
parent chain: MARWLLQILIISSLHLSSVSSQQETSFVYESFLDRQNLYLDKSAIVLPSGLLQLTNASEHQMGHAFHKKPIEFSSSGPLSFSTHFVCALVPKPGFEGGHGIVFVLSPSMDFTHAESTRYLGIFNASTNGSSSYHVLAVELDTIWNPDFKDIDHNHVGIDVNSPISVAIASASYYSDMKGSNESINLLSGNPIQVWVDYEGTLLNVSVAPLEVQKPTRPLLSHPINLTELFPNRSSLFAGFSAATGTAISDQYILWWSFSIDRGSLQRLDISKLPEVPHPRAPHKKVSTLIILLPVCLAILVLAVLAGLYFRRRRKYSEVSETWEKEFDAHRFSYRSLFKATKGFSKDEFLGKGGFGEVYRGNLPQGREIAVKRVSHNGDEGVKQFVAEVVSMRCLKHRNLVPLFGYCRRKRELLLVSEYMPNGSLDEHLFDDQKPVLSWSQRLVVVKGIASALWYLHTGADQVVLHRDVKASNIMLDAEFHGRLGDFGMARFHEHGGNAATTAAVGTVGYMAPELITMGASTGTDVYAFGVFMLEVTCGRRPVEPQLQVEKRHMIKWVCECWKKDSLLDATDPRLGGKFVAEEVEMVMKLGLLCSNIVPESRPTMEQVVLYLNKNLPLPDFSPYTLGIGTFAPVLVDASSLVVSSASWSLSGPSMSSSSPNHSPYAWQSTDQPWGQTIDTKNSLHIVAEPEKPSPAVKMVTLPAEDPQSNHSSISSQRVQPVKREKRRLHQILVAFPWINKQYFKLGLPKHIVHVSLFFFLQLARL
expression_or_secretion [2]: no change

B3: DORN1 extracellular domain (atDORN1-ECD; LecRK-I.9): N225D (protein)
parent chain: MARWLLQILIISSLHLSSVSSQQETSFVYESFLDRQNLYLDKSAIVLPSGLLQLTNASEHQMGHAFHKKPIEFSSSGPLSFSTHFVCALVPKPGFEGGHGIVFVLSPSMDFTHAESTRYLGIFNASTNGSSSYHVLAVELDTIWNPDFKDIDHNHVGIDVNSPISVAIASASYYSDMKGSNESINLLSGNPIQVWVDYEGTLLNVSVAPLEVQKPTRPLLSHPINLTELFPNRSSLFAGFSAATGTAISDQYILWWSFSIDRGSLQRLDISKLPEVPHPRAPHKKVSTLIILLPVCLAILVLAVLAGLYFRRRRKYSEVSETWEKEFDAHRFSYRSLFKATKGFSKDEFLGKGGFGEVYRGNLPQGREIAVKRVSHNGDEGVKQFVAEVVSMRCLKHRNLVPLFGYCRRKRELLLVSEYMPNGSLDEHLFDDQKPVLSWSQRLVVVKGIASALWYLHTGADQVVLHRDVKASNIMLDAEFHGRLGDFGMARFHEHGGNAATTAAVGTVGYMAPELITMGASTGTDVYAFGVFMLEVTCGRRPVEPQLQVEKRHMIKWVCECWKKDSLLDATDPRLGGKFVAEEVEMVMKLGLLCSNIVPESRPTMEQVVLYLNKNLPLPDFSPYTLGIGTFAPVLVDASSLVVSSASWSLSGPSMSSSSPNHSPYAWQSTDQPWGQTIDTKNSLHIVAEPEKPSPAVKMVTLPAEDPQSNHSSISSQRVQPVKREKRRLHQILVAFPWINKQYFKLGLPKHIVHVSLFFFLQLARL
expression_or_secretion [2]: no change

B4: DORN1 extracellular domain (atDORN1-ECD; LecRK-I.9): N124D (protein)
parent chain: MARWLLQILIISSLHLSSVSSQQETSFVYESFLDRQNLYLDKSAIVLPSGLLQLTNASEHQMGHAFHKKPIEFSSSGPLSFSTHFVCALVPKPGFEGGHGIVFVLSPSMDFTHAESTRYLGIFNASTNGSSSYHVLAVELDTIWNPDFKDIDHNHVGIDVNSPISVAIASASYYSDMKGSNESINLLSGNPIQVWVDYEGTLLNVSVAPLEVQKPTRPLLSHPINLTELFPNRSSLFAGFSAATGTAISDQYILWWSFSIDRGSLQRLDISKLPEVPHPRAPHKKVSTLIILLPVCLAILVLAVLAGLYFRRRRKYSEVSETWEKEFDAHRFSYRSLFKATKGFSKDEFLGKGGFGEVYRGNLPQGREIAVKRVSHNGDEGVKQFVAEVVSMRCLKHRNLVPLFGYCRRKRELLLVSEYMPNGSLDEHLFDDQKPVLSWSQRLVVVKGIASALWYLHTGADQVVLHRDVKASNIMLDAEFHGRLGDFGMARFHEHGGNAATTAAVGTVGYMAPELITMGASTGTDVYAFGVFMLEVTCGRRPVEPQLQVEKRHMIKWVCECWKKDSLLDATDPRLGGKFVAEEVEMVMKLGLLCSNIVPESRPTMEQVVLYLNKNLPLPDFSPYTLGIGTFAPVLVDASSLVVSSASWSLSGPSMSSSSPNHSPYAWQSTDQPWGQTIDTKNSLHIVAEPEKPSPAVKMVTLPAEDPQSNHSSISSQRVQPVKREKRRLHQILVAFPWINKQYFKLGLPKHIVHVSLFFFLQLARL
expression_or_secretion [2]: no change

B5: DORN1 extracellular domain (atDORN1-ECD; LecRK-I.9): N128D (protein)
parent chain: MARWLLQILIISSLHLSSVSSQQETSFVYESFLDRQNLYLDKSAIVLPSGLLQLTNASEHQMGHAFHKKPIEFSSSGPLSFSTHFVCALVPKPGFEGGHGIVFVLSPSMDFTHAESTRYLGIFNASTNGSSSYHVLAVELDTIWNPDFKDIDHNHVGIDVNSPISVAIASASYYSDMKGSNESINLLSGNPIQVWVDYEGTLLNVSVAPLEVQKPTRPLLSHPINLTELFPNRSSLFAGFSAATGTAISDQYILWWSFSIDRGSLQRLDISKLPEVPHPRAPHKKVSTLIILLPVCLAILVLAVLAGLYFRRRRKYSEVSETWEKEFDAHRFSYRSLFKATKGFSKDEFLGKGGFGEVYRGNLPQGREIAVKRVSHNGDEGVKQFVAEVVSMRCLKHRNLVPLFGYCRRKRELLLVSEYMPNGSLDEHLFDDQKPVLSWSQRLVVVKGIASALWYLHTGADQVVLHRDVKASNIMLDAEFHGRLGDFGMARFHEHGGNAATTAAVGTVGYMAPELITMGASTGTDVYAFGVFMLEVTCGRRPVEPQLQVEKRHMIKWVCECWKKDSLLDATDPRLGGKFVAEEVEMVMKLGLLCSNIVPESRPTMEQVVLYLNKNLPLPDFSPYTLGIGTFAPVLVDASSLVVSSASWSLSGPSMSSSSPNHSPYAWQSTDQPWGQTIDTKNSLHIVAEPEKPSPAVKMVTLPAEDPQSNHSSISSQRVQPVKREKRRLHQILVAFPWINKQYFKLGLPKHIVHVSLFFFLQLARL
expression_or_secretion [2]: no change

B6: DORN1 extracellular domain (atDORN1-ECD; LecRK-I.9): N124N204D (protein)
parent chain: MARWLLQILIISSLHLSSVSSQQETSFVYESFLDRQNLYLDKSAIVLPSGLLQLTNASEHQMGHAFHKKPIEFSSSGPLSFSTHFVCALVPKPGFEGGHGIVFVLSPSMDFTHAESTRYLGIFNASTNGSSSYHVLAVELDTIWNPDFKDIDHNHVGIDVNSPISVAIASASYYSDMKGSNESINLLSGNPIQVWVDYEGTLLNVSVAPLEVQKPTRPLLSHPINLTELFPNRSSLFAGFSAATGTAISDQYILWWSFSIDRGSLQRLDISKLPEVPHPRAPHKKVSTLIILLPVCLAILVLAVLAGLYFRRRRKYSEVSETWEKEFDAHRFSYRSLFKATKGFSKDEFLGKGGFGEVYRGNLPQGREIAVKRVSHNGDEGVKQFVAEVVSMRCLKHRNLVPLFGYCRRKRELLLVSEYMPNGSLDEHLFDDQKPVLSWSQRLVVVKGIASALWYLHTGADQVVLHRDVKASNIMLDAEFHGRLGDFGMARFHEHGGNAATTAAVGTVGYMAPELITMGASTGTDVYAFGVFMLEVTCGRRPVEPQLQVEKRHMIKWVCECWKKDSLLDATDPRLGGKFVAEEVEMVMKLGLLCSNIVPESRPTMEQVVLYLNKNLPLPDFSPYTLGIGTFAPVLVDASSLVVSSASWSLSGPSMSSSSPNHSPYAWQSTDQPWGQTIDTKNSLHIVAEPEKPSPAVKMVTLPAEDPQSNHSSISSQRVQPVKREKRRLHQILVAFPWINKQYFKLGLPKHIVHVSLFFFLQLARL
expression_or_secretion, percent_of_wt [3]: decreases

B7: DORN1 extracellular domain (atDORN1-ECD; LecRK-I.9): N124N128D (protein)
parent chain: MARWLLQILIISSLHLSSVSSQQETSFVYESFLDRQNLYLDKSAIVLPSGLLQLTNASEHQMGHAFHKKPIEFSSSGPLSFSTHFVCALVPKPGFEGGHGIVFVLSPSMDFTHAESTRYLGIFNASTNGSSSYHVLAVELDTIWNPDFKDIDHNHVGIDVNSPISVAIASASYYSDMKGSNESINLLSGNPIQVWVDYEGTLLNVSVAPLEVQKPTRPLLSHPINLTELFPNRSSLFAGFSAATGTAISDQYILWWSFSIDRGSLQRLDISKLPEVPHPRAPHKKVSTLIILLPVCLAILVLAVLAGLYFRRRRKYSEVSETWEKEFDAHRFSYRSLFKATKGFSKDEFLGKGGFGEVYRGNLPQGREIAVKRVSHNGDEGVKQFVAEVVSMRCLKHRNLVPLFGYCRRKRELLLVSEYMPNGSLDEHLFDDQKPVLSWSQRLVVVKGIASALWYLHTGADQVVLHRDVKASNIMLDAEFHGRLGDFGMARFHEHGGNAATTAAVGTVGYMAPELITMGASTGTDVYAFGVFMLEVTCGRRPVEPQLQVEKRHMIKWVCECWKKDSLLDATDPRLGGKFVAEEVEMVMKLGLLCSNIVPESRPTMEQVVLYLNKNLPLPDFSPYTLGIGTFAPVLVDASSLVVSSASWSLSGPSMSSSSPNHSPYAWQSTDQPWGQTIDTKNSLHIVAEPEKPSPAVKMVTLPAEDPQSNHSSISSQRVQPVKREKRRLHQILVAFPWINKQYFKLGLPKHIVHVSLFFFLQLARL
expression_or_secretion, percent_of_wt [3]: decreases
